ChEMBL document CHEMBL1124124, “Synthesis and interaction with uridine phosphorylase of 5'-deoxy-4',5-difluorouridine, a new prodrug of 5-fluorouracil” (J Med Chem, 1988)

Legend:
[1] = Kinetic constant for interaction with Urd phosphorylase from Lewis lung carcinoma
[2] = molecular target: Uridine phosphorylase 1 (Mus musculus) (UniProt P52624); experiment: as above; conditions: mouse
Sequence of Uridine phosphorylase 1 (Mus musculus) (P52624 whole entry, looked up): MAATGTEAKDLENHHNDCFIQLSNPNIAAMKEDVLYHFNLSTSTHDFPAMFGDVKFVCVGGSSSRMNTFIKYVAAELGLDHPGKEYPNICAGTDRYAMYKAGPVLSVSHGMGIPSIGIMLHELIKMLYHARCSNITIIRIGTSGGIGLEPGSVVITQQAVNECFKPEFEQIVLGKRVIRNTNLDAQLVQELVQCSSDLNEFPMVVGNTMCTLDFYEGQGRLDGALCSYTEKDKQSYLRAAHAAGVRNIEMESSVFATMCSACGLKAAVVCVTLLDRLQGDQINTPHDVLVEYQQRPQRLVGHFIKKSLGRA

B1: Uridine phosphorylase 1 (Homo sapiens), Q16831 (protein)
chain: MAATGANAEKAESHNDCPVRLLNPNIAKMKEDILYHFNLTTSRHNFPALFGDVKFVCVGGSPSRMKAFIRCVGAELGLDCPGRDYPNICAGTDRYAMYKVGPVLSVSHGMGIPSISIMLHELIKLLYYARCSNVTIIRIGTSGGIGLEPGTVVITEQAVDTCFKAEFEQIVLGKRVIRKTDLNKKLVQELLLCSAELSEFTTVVGNTMCTLDFYEGQGRLDGALCSYTEKDKQAYLEAAYAAGVRNIEMESSVFAAMCSACGLQAAVVCVTLLNRLEGDQISSPRNVLSEYQQRPQRLVSYFIKKKLSKA
Km [1]: 0.6 mM | Km [2]: 6 mM
